Laboratory results published in patent publication US20260139066A1 (VRIJE UNIVERSITEIT BRUSSEL, published 2026).
Where a chain is given by its changes, count along the chain named.

T1: canine urokinase plasminogen activator receptor, recombinant protein (canine)
T1 construct: Recombinant c uPAR produced by VIB (Ghent); also called c uPAR; canine uPAR
T1 chain: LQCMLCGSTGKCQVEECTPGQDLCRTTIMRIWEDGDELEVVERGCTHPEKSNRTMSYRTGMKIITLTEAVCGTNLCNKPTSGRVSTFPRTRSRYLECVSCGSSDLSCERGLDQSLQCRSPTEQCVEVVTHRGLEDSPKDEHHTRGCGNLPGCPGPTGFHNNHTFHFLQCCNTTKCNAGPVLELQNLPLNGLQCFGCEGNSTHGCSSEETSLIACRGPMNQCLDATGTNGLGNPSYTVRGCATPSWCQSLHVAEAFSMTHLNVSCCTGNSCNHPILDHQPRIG

B1: sdAb 15 (clone 5A4) with carboxy-terminal hexahistidine tag (VHH)
VHH: QVQLQESGGGWVQPGGSLRLSCAASGFTLDYYGIGWFRQAPGKEREGVSCISSSDGSTYYADSVKGRFTISRDNAKNTVYLQMNSLKPEDTAVYYCATRGASCYYTGSYSLGYDYWGQGTQVTVSS
notes: Lead compound; C-terminal 6His for purified-protein SPR; koff screen used bacterial extracts of the pMECS-GG construct; also called sdAb15.6His; Nr 15
B2: sdAb 18 (clone 5H2) with carboxy-terminal hexahistidine tag (VHH)
VHH: B1 VHH with W11L, V12A, A23T, L29S
notes: C-terminal 6His for purified-protein SPR; koff screen used bacterial extracts; also called Nr 18
B3: sdAb 16 (clone 5A5) with carboxy-terminal hexahistidine tag (VHH)
VHH: B1 VHH with W11L, A24I, T106S
notes: C-terminal 6His for purified-protein SPR; koff screen used bacterial extracts; also called Nr 16
B4: sdAb 17 (clone 5B7) with carboxy-terminal hexahistidine tag (VHH)
VHH: B1 VHH with W11L, A24V, F27S, D30E
notes: C-terminal 6His for purified-protein SPR; koff screen used bacterial extracts; also called Nr 17

Each binder was assayed against T2, human urokinase plasminogen activator receptor, recombinant extracellular domain protein (human, UniProt Q03405 23-303) (assay: SPR (Biacore T200) kinetics, purified sdAb 150-0.62 nM, h uPAR immobilised on CM5, 1:1 fit; column kd).
T2 construct: Bought recombinant protein (Sino Biological); also called h uPAR; human uPAR
T2 sequence (Q03405 23-303 limits assumed): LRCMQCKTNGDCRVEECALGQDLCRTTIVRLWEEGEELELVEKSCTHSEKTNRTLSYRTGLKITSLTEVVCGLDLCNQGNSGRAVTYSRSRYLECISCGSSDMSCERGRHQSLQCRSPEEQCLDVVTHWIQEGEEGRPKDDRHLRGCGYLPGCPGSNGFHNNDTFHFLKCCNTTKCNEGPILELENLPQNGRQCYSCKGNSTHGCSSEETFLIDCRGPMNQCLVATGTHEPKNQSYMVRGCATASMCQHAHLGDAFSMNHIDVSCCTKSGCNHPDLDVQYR
Description: (§1) The thermal stability of the sdAbs was determined via a thermal shift assay. Melting temperatures (Tₘ) ranged between 59.5 and 73.6° C. (Table 1). The kinetic parameters (kₐ, Kd, KD) of the purified sdAbs were evaluated via SPR on respectively h and c uPAR recombinant protein (FIG. 10, Table 1). Contrarily to the BE-ELISA results, no h/m or h/m/c cross-reactive sdAbs were identified. […] Finally, their binding to cell-membrane-expressed uPAR was investigated via flow cytometry using 1) h or c uPAR lentivirally transduced HEK293T cells and 2) U87 or HT29 cells with natural h expression. SdAbs showing a significant shift in binding compared to the control conditions (i.e., binding of the non-targeting sdAb R3B23) were further taken into consideration (FIG. 2). Based on the combined results in terms of production yield, stability, binding characteristics, and cross-reactivity, 2 anti-h uPAR (sdAb 3 and 4) and 4 cross-reactive h/c uPAR (sdAb 15, 16, 17 and 18, having respectively SEQ ID NOs: 2, 20, 21, 22) sdAbs were selected for further in vivo evaluation.
(§2) SPR was performed using a Biacore device (Biacore T200; Cytiva). First, the CM5 sensor chip (Biacore, Series S Sensor Chip CM5; Cytiva) was activated with 1-ethyl-3-(3-dimethylaminopropyl) carbodiimide/N-hydroxysuccinimide (EDC/NHS; Amine Coupling Kit; Cytiva). Subsequently, h, m or c uPAR recombinant proteins (5 μg/mL) were immobilized on separate chips at pH 5. The SPR measurements were done at 25° C. in HEPES buffered saline (HBS; Cytiva) as a running buffer, with a flow rate of 30 μL/min. For off-rate screening, the contact time was set at 120 s, dissociation time at 600 s, and the runs were replicated 5 times. […] The association step was allowed for 180 s, the dissociation step for 600 s. For both studies, regeneration of 20 s at 30 μL/min using 0.1 M glycine at pH 2.5 followed by a stabilization period of 60 s, was performed.

Row | koff [s⁻¹] | Binder
1 | 0.0034 | B1
2 | 0.004 | B2
3 | 0.0015 | B3
4 | 0.0019 | B4

Biological target: T1, canine urokinase plasminogen activator …
Assay: SPR (Biacore T200) kinetics, purified sdAb 150-0.62 nM, c uPAR immobilised on CM5, 1:1 fit; column kd
Description: as §1, §2

Row | koff [s⁻¹] | Binder
5 | 0.002 | B1
6 | 0.0035 | B2
7 | 0.0031 | B3
8 | 0.0019 | B4

Biological target: T1, canine urokinase plasminogen activator …
Assay: SPR (Biacore T200) kinetics, purified sdAb 150-0.62 nM, c uPAR immobilised on CM5, 1:1 fit
Description: as §1, §2

Row | kon [M⁻¹ s⁻¹] | Binder
9 | 170000 | B1
10 | 100000 | B2
11 | 86000 | B3
12 | 120000 | B4

Biological target: T1, canine urokinase plasminogen activator …
Assay: SPR (Biacore T200) off-rate screening of bacterial extract, c uPAR immobilised on CM5; column koff
Description: as §2

Row | koff [s⁻¹] | Binder
13 | 0.0065 | B1
14 | 0.0092 | B2
15 | 0.01 | B3
16 | 0.0073 | B4

These binders were tested against T2, human urokinase plasminogen activator … (assay: SPR (Biacore T200) kinetics, purified sdAb 150-0.62 nM, h uPAR immobilised on CM5, 1:1 fit).
Description: as §1, §2

Row | kon [M⁻¹ s⁻¹] | Binder
17 | 1.6e+06 | B1
18 | 840000 | B2
19 | 500000 | B3
20 | 860000 | B4

The binders below were run against T2, human urokinase plasminogen activator … (assay: SPR (Biacore T200) off-rate screening of bacterial extract, h uPAR immobilised on CM5; column koff).
Description: as §2

Row | koff [s⁻¹] | Binder
21 | 0.0042 | B1
22 | 0.0031 | B2
23 | 0.0027 | B3
24 | 0.0026 | B4

The binders below were run against T2, human urokinase plasminogen activator … (assay: SPR (Biacore T200) kinetics, purified sdAb 150-0.62 nM, h uPAR immobilised on CM5, kd/ka).
Description: as §1, §2

Row | Kd [nM] | Binder
25 | 2.1 | B1
26 | 4.7 | B2
27 | 3 | B3
28 | 2.3 | B4

Biological target: T1, canine urokinase plasminogen activator …
Assay: SPR (Biacore T200) kinetics, purified sdAb 150-0.62 nM, c uPAR immobilised on CM5, kd/ka
Description: as §1, §2

Row | Kd [nM] | Binder
29 | 12 | B1
30 | 34 | B2
31 | 36 | B3
32 | 17 | B4
